Source: publication PMC10655381

Biological target: recombinant glycerol dehydratase 2eGDHt αβγ heterotrimer from Klebsiella pneumoniae 2e (Klebsiella pneumoniae 2e) (UniProt Q59476)
Experiment: native gel or EMSA; Native-PAGE of purified recombinant 2eGDHt; heterotrimer to dimer of heterotrimers

recombinant glycerol dehydratase 2eGDHt αβγ heterotrimer from Klebsiella pneumoniae 2e (from UniProt Q59476 1-555; A6TE99 1-194; Q59475 1-141) (complex)
stoichiometry N: 2
